From CN105601719A, “拟组织金属蛋白酶抑制因子多肽及其应用” (Suzhou Puluoda Biological Science and Technology Co Ltd, priority 2016, dated 2016)

Assays:
[1] = target: T1, recombinant human matrix metalloproteinase-2 (重组人基质金属蛋白酶-2) (Homo sapiens, UniProt P08253); assay: In vitro inhibition of matrix metalloproteinase-2 (fluorogenic peptide cleavage); format: biochemical; conditions: MMP-2; substrate Mca-Pro-Leu-Gly-Leu-Dpa-Ala-Arg-NH2; pH 7.4; 37 °C; 100 μl
T1 construct: 该酶用0.01μM的基质金属蛋白酶-3活性位点活化; made in house; host or cells: E. coli
T1 sequence (P08253 110-660): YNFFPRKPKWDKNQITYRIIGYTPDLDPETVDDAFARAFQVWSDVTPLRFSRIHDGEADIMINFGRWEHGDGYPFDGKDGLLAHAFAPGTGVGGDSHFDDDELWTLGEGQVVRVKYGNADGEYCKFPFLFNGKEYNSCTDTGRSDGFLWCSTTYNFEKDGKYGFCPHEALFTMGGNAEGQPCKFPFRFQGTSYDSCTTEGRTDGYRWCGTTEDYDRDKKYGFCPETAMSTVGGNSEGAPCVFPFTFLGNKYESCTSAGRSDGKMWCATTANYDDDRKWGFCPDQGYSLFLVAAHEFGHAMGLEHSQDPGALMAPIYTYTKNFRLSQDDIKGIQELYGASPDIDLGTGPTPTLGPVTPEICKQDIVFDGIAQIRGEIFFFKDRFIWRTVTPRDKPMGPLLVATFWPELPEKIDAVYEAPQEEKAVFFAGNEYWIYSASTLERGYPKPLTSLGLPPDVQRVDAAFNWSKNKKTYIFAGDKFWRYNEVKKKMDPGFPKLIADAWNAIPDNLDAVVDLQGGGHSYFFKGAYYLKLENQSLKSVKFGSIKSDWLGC

[2] = target: recombinant human matrix metalloproteinase-9 (重组人基质金属蛋白酶-9) (Homo sapiens, UniProt P14780); assay: In vitro inhibition of matrix metalloproteinase-9 (fluorogenic peptide cleavage); format: biochemical; conditions: MMP-9; same fluorogenic substrate, 10 μM final; 37 °C; 100 μl
recombinant human matrix metalloproteinase-9 (重组人基质金属蛋白酶-9), sequence (P14780 94-707): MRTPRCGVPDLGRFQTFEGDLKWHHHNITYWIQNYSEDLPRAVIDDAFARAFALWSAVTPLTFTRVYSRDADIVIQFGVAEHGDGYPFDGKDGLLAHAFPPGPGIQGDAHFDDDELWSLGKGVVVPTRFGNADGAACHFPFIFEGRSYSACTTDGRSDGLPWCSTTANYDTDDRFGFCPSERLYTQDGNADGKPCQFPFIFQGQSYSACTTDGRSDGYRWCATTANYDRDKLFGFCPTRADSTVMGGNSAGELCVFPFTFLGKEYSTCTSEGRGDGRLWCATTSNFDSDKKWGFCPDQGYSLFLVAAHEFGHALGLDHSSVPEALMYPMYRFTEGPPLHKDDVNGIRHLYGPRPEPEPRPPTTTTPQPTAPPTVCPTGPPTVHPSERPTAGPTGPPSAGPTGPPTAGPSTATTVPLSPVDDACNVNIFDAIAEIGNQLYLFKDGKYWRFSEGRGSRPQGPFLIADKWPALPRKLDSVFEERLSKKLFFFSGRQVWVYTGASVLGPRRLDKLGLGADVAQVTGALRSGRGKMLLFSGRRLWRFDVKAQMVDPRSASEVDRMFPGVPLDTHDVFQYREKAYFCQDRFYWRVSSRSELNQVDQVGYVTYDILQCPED

[3] = system: human osteoblasts (人成骨细胞); assay: Growth of human osteoblasts cultured in vitro (MTT colorimetric assay); format: cell-based; conditions: 48 h, absorbance 620 nm

IC50 [1]: 75.1 µM | IC50 [2]: 25.8 µM
Sequence: PEPEFHLISAFWPSLPSYLDAA [实施例1, TIMP-mimetic 22-residue peptide made by Fmoc solid-phase synthesis]
EC50 [3]: 13.2 µM
